Assay results published in patent publication US20150307603A1 (MODIQUEST B V, published 2015).
Non-standard residues stand in square brackets, D forms with d. No end group written: not given here. Cit = NC(=O)NCCC[C@H](N)C(=O)O

Legend:
[1] = molecular target: T1, human recombinant histone 2A (human); test: ELISA, Ab 2 ug/well
T1 construct: Non-deiminated; also called H2A
Excerpt: (§1) The resulting OD (y-axis) is a measure for antibody binding. H1-recombinant histone 1; H1/p2-huPAD2 recombinant histone 1; H1/p4-huPAD4 recombinant histone 1, and so forth (x-axis).

[2] = molecular target: T2, huPAD2-deiminated human recombinant histone 3 (human); test: ELISA, Ab 2 ug/well
T2 construct: also called H3/p2; histone 3/p2
Excerpt: as §1

[3] = molecular target: T3, huPAD4-deiminated human recombinant histone 2B (human); test: ELISA, Ab 2 ug/well
T3 construct: also called H2B/p4
Excerpt: as §1

[4] = molecular target: T4, CFC-1; test: ELISA, Ab 2 ug/well
T4 construct: Positive control for anti-citrulline reactivity; also called cfc1 XG; Cfc1-peptide
Excerpt: as §1

[5] = molecular target: T5, human recombinant histone 2B (human); test: ELISA, Ab 2 ug/well
T5 construct: Non-deiminated; also called H2B
Excerpt: as §1

[6] = molecular target: T6, huPAD4-deiminated human recombinant histone 3 (human); test: ELISA, Ab 2 ug/well
T6 construct: also called H3/p4
Excerpt: as §1

[7] = molecular target: human recombinant histone 4 (human, UniProt P62805 2-103); test: ELISA, Ab 2 ug/well
Excerpt: as §1

[8] = molecular target: T7, huPAD2-deiminated human recombinant histone 2B (human); test: ELISA, Ab 2 ug/well
T7 construct: also called H2B/p2
Excerpt: as §1

[9] = molecular target: T8, huPAD4-deiminated human recombinant histone 2A (human); test: ELISA, Ab 2 ug/well
T8 construct: also called H2A/p4; histone 2A/p4
Excerpt: as §1

[10] = molecular target: T9, huPAD2-deiminated human recombinant histone 2A (human); test: ELISA, Ab 2 ug/well
T9 construct: also called H2A/p2; histone 2A/p2
Excerpt: as §1

[11] = molecular target: T10, peptide no. 9 (human histone 2A) (human, also: biotin-labelled); test: ELISA, Ab 0.000128 ug/well
T10 construct: also called peptide 9
T10 peptide: DNKKT[Cit]IIPRHL
Description: (§2) Biotin and citrulline-containing peptides derived from histone 2A were immobilized on NEUTRAVIDIN®-coated 96-well ELISA plates (0.3 μg/well). CFC-1 and CFC-0 were coated at the same concentration and served as positive and negative controls, respectively, for specific anti-citrulline reactivity and as coating controls. Non-coated wells were used to test for aspecific binding of the antibodies. […] Detection of bound anti-citrulline antibodies was performed by incubating the wells with rabbit anti-human HRP (1:2000) for 1 hour at RT followed by incubation with TMB substrate. The resulting OD (y-axis) is a measure for antibody binding.

[12] = molecular target: T11, peptide no. 2 (human histone 2A) (human, also: biotin-labelled); test: ELISA, Ab 0.000128 ug/well
T11 construct: also called peptide 2
T11 peptide: AKAKS[Cit]SSRAGL
Description: as §2

[13] = molecular target: T12, peptide no. 6 (human histone 2A) (human, also: biotin-labelled); test: ELISA, Ab 0.000128 ug/well
T12 construct: also called peptide 6
T12 peptide: VHRLL[Cit]KGNYSE
Description: as §2

[14] = molecular target: T13, peptide no. 8 (human histone 2A) (human, also: biotin-labelled); test: ELISA, Ab 0.000128 ug/well
T13 construct: also called peptide 8
T13 peptide: AGNAA[Cit]DNKKTR
Description: as §2

[15] = molecular target: T4, CFC-1; test: ELISA, Ab 0.000128 ug/well
Description: as §2

[16] = molecular target: T14, peptide no. 5 (human histone 2A) (human, also: biotin-labelled); test: ELISA, Ab 0.000128 ug/well
T14 construct: also called peptide 5
T14 peptide: VGRVH[Cit]LLRKGN
Description: as §2

[17] = molecular target: T15, peptide no. 3 (human histone 2A) (human, also: biotin-labelled); test: ELISA, Ab 0.000128 ug/well
T15 construct: also called peptide 3
T15 peptide: KSRSS[Cit]AGLQFP
Description: as §2

[18] = molecular target: T16, peptide no. 10 (human histone 2A) (human, also: biotin-labelled); test: ELISA, Ab 0.000128 ug/well
T16 construct: also called peptide 10
T16 peptide: TRIIP[Cit]HLQLAI
Description: as §2

[19] = molecular target: T17, peptide no. 11 (human histone 2A) (human, also: biotin-labelled); test: ELISA, Ab 0.000128 ug/well
T17 construct: also called peptide 11
T17 peptide: LQLAI[Cit]NDEELN
Description: as §2

[20] = molecular target: T18, peptide no. 1 (human histone 2A) (human, also: biotin-labelled); test: ELISA, Ab 0.000128 ug/well
T18 construct: also called peptide 1; AAASGXGKQGGK
T18 peptide: AAASG[Cit]GKQGGK
Description: as §2

[21] = molecular target: T10, peptide no. 9 (human histone 2A); test: ELISA, Ab 0.00064 ug/well
Description: as §2

[22] = molecular target: T11, peptide no. 2 (human histone 2A); test: ELISA, Ab 0.00064 ug/well
Description: as §2

[23] = molecular target: T19, peptide no. 4 (human histone 2A) (human, also: biotin-labelled); test: ELISA, Ab 0.00064 ug/well
T19 construct: also called peptide 4
T19 peptide: QFPVG[Cit]VHRLLR
Description: as §2

[24] = molecular target: T13, peptide no. 8 (human histone 2A); test: ELISA, Ab 0.00064 ug/well
Description: as §2

[25] = molecular target: T20, peptide no. 7 (human histone 2A) (human, also: biotin-labelled); test: ELISA, Ab 0.00064 ug/well
T20 construct: also called peptide 7
T20 peptide: GNYSE[Cit]VGAGAP
Description: as §2

[26] = molecular target: T4, CFC-1; test: ELISA, Ab 0.00064 ug/well
Description: as §2

[27] = molecular target: T17, peptide no. 11 (human histone 2A); test: ELISA, Ab 0.00064 ug/well
Description: as §2

[28] = molecular target: T18, peptide no. 1 (human histone 2A); test: ELISA, Ab 0.00064 ug/well
Description: as §2

[29] = molecular target: T2, huPAD2-deiminated human recombinant …; test: ELISA, Ab 0.000128 ug/well
Excerpt: as §1

[30] = molecular target: T6, huPAD4-deiminated human recombinant …; test: ELISA, Ab 0.000128 ug/well
Excerpt: as §1

[31] = molecular target: T7, huPAD2-deiminated human recombinant …; test: ELISA, Ab 0.000128 ug/well
Excerpt: as §1

[32] = molecular target: T9, huPAD2-deiminated human recombinant …; test: ELISA, Ab 0.000128 ug/well
Excerpt: as §1

B1: RhmAb2.102 (antibody, human IgG1, lambda)
heavy: not shown
light: QSVLTQPPSMSAAPGQKVTISCSGSSSNIGNNYVSWYQQVPGTAPKLLIYDDNKRPSGIPGRFSGSKSATSATLGITGLQAGDEADYYCGSWDDNLSVVLFGGGTKLTVLGQPKAAPSVTLFPPSSEELQANKATLVCLISDFYPGAVTVAWKADSSPVKAGVETTTPSKQSNNKYAASSYLSLTPEQWKSHRSYSCQVTHEGSTVEKTVAPTECS
notes: Human IgG1 lambda; also called Rhm2.102
- OD [1]: 0.115 OD450
- OD [2]: 1.94 OD450
- OD [3]: 0.069 OD450
- OD [4]: 3.38 OD450
- OD [5]: 0.076 OD450
- OD [6]: 0.439 OD450
- OD [7]: 0.208 OD450
- OD [8]: 0.086 OD450
- OD [9]: 3.13 OD450
- OD [10]: 3.18 OD450
- OD [11]: 0.055 OD450
- OD [12]: 0.075 OD450
- OD [13]: 0.054 OD450
- OD [14]: 0.055 OD450
- OD [15]: 0.749 OD450
- OD [16]: 0.059 OD450
- OD [17]: 0.063 OD450
- OD [18]: 0.057 OD450
- OD [19]: 0.059 OD450
- OD [20]: 0.128 OD450
- OD [21]: 0.059 OD450
- OD [22]: 0.055 OD450
- OD [23]: 0.063 OD450
- OD [24]: 0.057 OD450
- OD [25]: 0.057 OD450
- OD [26]: 0.621 OD450
- OD [27]: 0.06 OD450
- OD [28]: 0.16 OD450
- OD [29]: 0.066 OD450
- OD [30]: 0.06 OD450
- OD [31]: 0.051 OD450
- OD [32]: 0.063 OD450
